In article PMC7888922:

What was measured:
[1] = biological target: sACE2_(2).v2.4-IgG1 (human) (UniProt Q9BYF1); test: BLI
[2] = biological target: WT sACE2_(2)-IgG1 (human) (UniProt Q9BYF1); test: BLI

Substance	Kd [1] [nM]	koff [1] [s⁻¹]	kon [1] [M⁻¹ s⁻¹]	Kd [2] [nM]	koff [2] [s⁻¹]	kon [2] [M⁻¹ s⁻¹]
SARS-CoV-2 RBD-8h (from UniProt P0DTC2 333-529) (domain or fragment)	0.4	0.00028	660000			
RsSHC014 RBD-8h (domain or fragment)	1.3	0.002	1.6e+06	29	0.026	880000
